In assay [1] the target is APRc_(110–231)(D140N)His, active site mutant of the soluble domain of APRc (UniProt Q92FY8). Put plainly: shift of migration in nonreducing SDS-PAGE with Western blot. (In general: A western blot detects proteins with antibodies after separation by electrophoresis.)
The target of a further assay is human IgG (human). Put plainly: BLI. (In BLI a coated tip is dipped into the sample, and binding shifts an interference pattern.)

Broadly, the stoichiometry N is a count of units in the complex or per binding partner. For “APRc_(110–231)(D140N)His, active site mutant of the soluble domain of APRc (from UniProt Q92FY8 110-231) (domain or fragment)”, in assay [1], the stoichiometry N was determined as 2.

In general, Kd refers to the equilibrium constant for the complex coming apart. The substance “APRc_(110–231)His, soluble domain of APRc fused to a C-terminal His tag (from UniProt Q92FY8 110-231) (domain or fragment)” registered a Kd with human IgG (human) of 12.6 µM.

Source of the values: paper PMC8649778.
